Measured values published in the RNAGym collection of RNA variant scans (doi:10.1073/pnas.2313332121).
Fewer inactive variants are shown than the library holds.

B1: TPR 5TU (parent)
chain: GGAUCUUCUCGAUCUAACAAAAAAGACAAAUCUGCCACAAAGCUUGAGAGCAUCUUCGGAUGCAGAGGCGGCAGCCUUCGGUGGCGCGAUAGCGCCAACGUUCUCAACUAUGACACGCAAAACGCGUGCUCCGUUGAAUGGAGUUUAUCAUG

Variants of: B1
Experiment: polymerase ribozyme fitness, log enrichment relative to wild type (log ratio); higher = more active; in vitro selection for triplet polymerase activity
Summary of the method: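 The heterodimeric triplet polymerase ribozyme's subunits were each mutagenized into PCR-built libraries and transcribed. Every library was selected once, in triplicate, by annealing with a biotinylated primer, the partner subunit and triplets, incubating frozen at −7 °C, gel-excising extended constructs, capturing on streptavidin beads and running RT-PCR. Input and output libraries were Illumina-sequenced, with genotypes kept only at ≥10 input reads and ≥1 read per output. Fitness, from inverse-variance-weighted replicate averages, is the base-2 logarithm of genotype enrichment over wild-type enrichment.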

Question: Which “polymerase ribozyme fitness (log ratio)” value does the source give for U15G A17C A40C here?
Answer: 0.895

Question: Which “polymerase ribozyme fitness (log ratio)” value does the source give for U15G A52U here?
Answer: -1.59

Question: Which “polymerase ribozyme fitness (log ratio)” value does the source give for U15C A40C C93A C95U C116A A121U here?
Answer: -1.18

Question: Which “polymerase ribozyme fitness (log ratio)” value does the source give for C14U G92A C103G here?
Answer: ≤ -4.2

Question: Which “polymerase ribozyme fitness (log ratio)” value does the source give for U15C C35G A39U A73G G83C G100A A107G C125A G141U here?
Answer: ≤ -4.2

Question: Which “polymerase ribozyme fitness (log ratio)” value does the source give for U15G U31A here?
Answer: 0.571

Question: For A16C A17C A20U A30U A37C U55G C93G C103A A119G, which “polymerase ribozyme fitness (log ratio)” value is on record?
Answer: ≤ -4.2

Question: For U15A, which “polymerase ribozyme fitness (log ratio)” value is on record?
Answer: -0.182

Question: With U15C as the variant, how does the “polymerase ribozyme fitness (log ratio)” value read?
Answer: 0.917

Question: Which “polymerase ribozyme fitness (log ratio)” value does the source give for U15G here?
Answer: -0.334

Question: Which “polymerase ribozyme fitness (log ratio)” value does the source give for A16C C36U G59C here?
Answer: -2.53

Question: Which “polymerase ribozyme fitness (log ratio)” value does the source give for U15G A17U C79G G80A G81U G92A G124A A147U here?
Answer: ≤ -4.2

Question: For U15G A20U A37G U45A G50C G70U C95U C118G G141C A147C G152A, which “polymerase ribozyme fitness (log ratio)” value is on record?
Answer: ≤ -4.2

Question: With U15G C132A as the variant, how does the “polymerase ribozyme fitness (log ratio)” value read?
Answer: -2.26

Question: With C14U C87U U101C C118G as the variant, how does the “polymerase ribozyme fitness (log ratio)” value read?
Answer: -3.29

Question: Which “polymerase ribozyme fitness (log ratio)” value does the source give for U15G A39U C72U A91U A147U A150C here?
Answer: ≤ -4.2

Question: With U15A A26C G34U C105G G143C as the variant, how does the “polymerase ribozyme fitness (log ratio)” value read?
Answer: ≤ -4.2

Question: For C14U U15G U45A G58U C75G U135C, which “polymerase ribozyme fitness (log ratio)” value is on record?
Answer: ≤ -4.2

Question: Which “polymerase ribozyme fitness (log ratio)” value does the source give for C14U A47C G50A G70A U77C C85A C125G C132A A142U here?
Answer: ≤ -4.2

Question: With A16C A73U G88C C95G A98U as the variant, how does the “polymerase ribozyme fitness (log ratio)” value read?
Answer: ≤ -4.2

Question: For C14U G58C C85U A89G G136A, which “polymerase ribozyme fitness (log ratio)” value is on record?
Answer: -3.44

Question: Which “polymerase ribozyme fitness (log ratio)” value does the source give for U15G A16U A41C A52C G81C G83U A106U U127A here?
Answer: ≤ -4.2

Question: Which “polymerase ribozyme fitness (log ratio)” value does the source give for U15C C93U A122U here?
Answer: -0.873

Question: For U15G A47C C57U C96A C108G, which “polymerase ribozyme fitness (log ratio)” value is on record?
Answer: ≤ -4.2

Question: Which “polymerase ribozyme fitness (log ratio)” value does the source give for U15G A26U C38G G42A U44A C95G C99U here?
Answer: ≤ -4.2

Question: With U15A C54U G92A as the variant, how does the “polymerase ribozyme fitness (log ratio)” value read?
Answer: -3

Question: Which “polymerase ribozyme fitness (log ratio)” value does the source give for C14U C54U G84A G133U here?
Answer: -3.87

Question: With A16C G42U U56C G81U C85G as the variant, how does the “polymerase ribozyme fitness (log ratio)” value read?
Answer: ≤ -4.2

Question: Which “polymerase ribozyme fitness (log ratio)” value does the source give for U15G A49C G65C A120C A142C here?
Answer: ≤ -4.2

Question: Which “polymerase ribozyme fitness (log ratio)” value does the source give for U15G G92U A147U here?
Answer: 0.901

Question: With U15C A49G C85U U109G as the variant, how does the “polymerase ribozyme fitness (log ratio)” value read?
Answer: -0.987

Question: Which “polymerase ribozyme fitness (log ratio)” value does the source give for A16C A17G G58U C87A C93A here?
Answer: ≤ -4.2

Question: Which “polymerase ribozyme fitness (log ratio)” value does the source give for U15G C69A C96U here?
Answer: -1.09

Question: Which “polymerase ribozyme fitness (log ratio)” value does the source give for A16C A20C C85A G141C here?
Answer: -2.3

Question: With C14U C54G C93A C95G A150G as the variant, how does the “polymerase ribozyme fitness (log ratio)” value read?
Answer: ≤ -4.2

Question: With C14U G94C A107G G117A A142U as the variant, how does the “polymerase ribozyme fitness (log ratio)” value read?
Answer: ≤ -4.2

Question: For A16C A22U G62A G74A G81C A106G G141C, which “polymerase ribozyme fitness (log ratio)” value is on record?
Answer: ≤ -4.2

Question: For U15G C18U U56C G83A C87U, which “polymerase ribozyme fitness (log ratio)” value is on record?
Answer: -1.58

Question: For U15C A23C A30G U44A G70A C87A G141C, which “polymerase ribozyme fitness (log ratio)” value is on record?
Answer: ≤ -4.2

Question: Which “polymerase ribozyme fitness (log ratio)” value does the source give for U15A C35U U55A C96G A107U U135C here?
Answer: ≤ -4.2

Question: For U15C C54A G59A G84U A106G U146G, which “polymerase ribozyme fitness (log ratio)” value is on record?
Answer: -2.98

Question: Which “polymerase ribozyme fitness (log ratio)” value does the source give for U15A A60G G80U C96U A122C here?
Answer: -1.4

Question: With U15C A17U A60G G62C A91U as the variant, how does the “polymerase ribozyme fitness (log ratio)” value read?
Answer: ≤ -4.2

Question: Which “polymerase ribozyme fitness (log ratio)” value does the source give for U15G C51U A98U A115G G136A here?
Answer: -2.29

Question: Which “polymerase ribozyme fitness (log ratio)” value does the source give for U15G A22U U56A A66C G117A A138G U146C here?
Answer: ≤ -4.2

Question: Which “polymerase ribozyme fitness (log ratio)” value does the source give for A16C C51A C54G C57A C96A G117U U135G here?
Answer: ≤ -4.2

Question: For U15A A29G U78A G88A G126U U135G U148G, which “polymerase ribozyme fitness (log ratio)” value is on record?
Answer: ≤ -4.2

Question: With U15A A47G U56A C57U G124C C149U as the variant, how does the “polymerase ribozyme fitness (log ratio)” value read?
Answer: -2.48

Question: Which “polymerase ribozyme fitness (log ratio)” value does the source give for U15G A26G A52U U53A G65A G80U C87G C96G A97G C108G here?
Answer: ≤ -4.2

Question: For U15C A19C C85U C87U, which “polymerase ribozyme fitness (log ratio)” value is on record?
Answer: 0.246

Question: With U15A C51U G86U as the variant, how does the “polymerase ribozyme fitness (log ratio)” value read?
Answer: -1.69

Question: With U15A A29C C38U A119U G126A U144A C149G as the variant, how does the “polymerase ribozyme fitness (log ratio)” value read?
Answer: ≤ -4.2

Question: Which “polymerase ribozyme fitness (log ratio)” value does the source give for U15G G34U A107C A115U C118A U134C U135G A150G here?
Answer: ≤ -4.2

Question: With U15A A19U C57G G86A as the variant, how does the “polymerase ribozyme fitness (log ratio)” value read?
Answer: -1.7

Question: With U15G C51A C93A G124U U145A as the variant, how does the “polymerase ribozyme fitness (log ratio)” value read?
Answer: -3.28

Question: Which “polymerase ribozyme fitness (log ratio)” value does the source give for A16C A49U C85U U146C here?
Answer: -2.7

Question: For U15G C18G A40U, which “polymerase ribozyme fitness (log ratio)” value is on record?
Answer: -1.5

Question: With U15A A40C as the variant, how does the “polymerase ribozyme fitness (log ratio)” value read?
Answer: 0.538

Question: For U15C C93G, which “polymerase ribozyme fitness (log ratio)” value is on record?
Answer: -2.27

Question: Which “polymerase ribozyme fitness (log ratio)” value does the source give for C14U U45A A91U U127G here?
Answer: ≤ -4.2

Question: Which “polymerase ribozyme fitness (log ratio)” value does the source give for U15G A19U A91U here?
Answer: -3.99

Question: For U15A C27G U55A C57G G94U C105U G136A G143U, which “polymerase ribozyme fitness (log ratio)” value is on record?
Answer: ≤ -4.2

Question: For A16C A20U, which “polymerase ribozyme fitness (log ratio)” value is on record?
Answer: -2.36

Question: Which “polymerase ribozyme fitness (log ratio)” value does the source give for A16C A110G here?
Answer: -3.67

Question: Which “polymerase ribozyme fitness (log ratio)” value does the source give for U15G C27A U146A here?
Answer: ≤ -4.2

Question: Which “polymerase ribozyme fitness (log ratio)” value does the source give for U15C A64C G71A G100A C118U here?
Answer: ≤ -4.2

Question: Which “polymerase ribozyme fitness (log ratio)” value does the source give for C14U G84U A107U A147U here?
Answer: ≤ -4.2

Question: With U15G G50C C69U C76A G84U as the variant, how does the “polymerase ribozyme fitness (log ratio)” value read?
Answer: ≤ -4.2

Question: For U15G G50U U61A C93G C105U A107G, which “polymerase ribozyme fitness (log ratio)” value is on record?
Answer: ≤ -4.2

Question: For U15G C51U G86U A89U C114U, which “polymerase ribozyme fitness (log ratio)” value is on record?
Answer: ≤ -4.2

Question: For U15C U145C A150G, which “polymerase ribozyme fitness (log ratio)” value is on record?
Answer: -0.684

Question: With U15G A28G C79A G124U as the variant, how does the “polymerase ribozyme fitness (log ratio)” value read?
Answer: ≤ -4.2

Question: With U15C C36A A60U C85G C116U as the variant, how does the “polymerase ribozyme fitness (log ratio)” value read?
Answer: ≤ -4.2

Question: Which “polymerase ribozyme fitness (log ratio)” value does the source give for A16C C18G A47U G92A U101A here?
Answer: ≤ -4.2

Question: With C14U C57U as the variant, how does the “polymerase ribozyme fitness (log ratio)” value read?
Answer: -1.27

Question: With C14U G46A C54A C132A as the variant, how does the “polymerase ribozyme fitness (log ratio)” value read?
Answer: ≤ -4.2

Question: Which “polymerase ribozyme fitness (log ratio)” value does the source give for U15A A24G G25U C32A U56A G59C U82G C103G here?
Answer: ≤ -4.2

Question: Which “polymerase ribozyme fitness (log ratio)” value does the source give for U15G A20C G42U A52G C85U C93G C103A here?
Answer: ≤ -4.2

Question: For U15C A26U C57G G59U C87A G88A A107U U148G, which “polymerase ribozyme fitness (log ratio)” value is on record?
Answer: ≤ -4.2

Question: Which “polymerase ribozyme fitness (log ratio)” value does the source give for A16C C32U here?
Answer: -2.43

Question: Which “polymerase ribozyme fitness (log ratio)” value does the source give for U15G C103A here?
Answer: -1.91

Question: With U15C A24G C76U U145A as the variant, how does the “polymerase ribozyme fitness (log ratio)” value read?
Answer: ≤ -4.2

Question: Which “polymerase ribozyme fitness (log ratio)” value does the source give for C14U C118U here?
Answer: -1.65

Question: For U15A C57U C63A G68A C87U A122U, which “polymerase ribozyme fitness (log ratio)” value is on record?
Answer: ≤ -4.2
